Reference: patent US11111484B2, “Streptococcus bacteriophage lysins for detection and treatment of gram positive bacteria” (priority 2011, dated 2021)
Where “and” joins values, the source holds several entries; their conditions need not be identical. Equal values may be shown once. Entries after “also recorded” stand apart in the source; their conditions may differ.

Key:
S. suis 7997 (ST9) = experiment: ΔPlySs1 CFU analysis, 1 hr treatment; type: cell-based, Streptococcus suis
Experimental: (§1) Truncated PlySs1(ΔPlySs1) lysin activity was determined against different cell types. Given the above experiments, the following optimal buffering conditions were employed for all further in vitro experiments with ΔPlySs1: 20 mM phosphate buffer, pH=7.8, 2 mM EDTA. A range of lysin concentrations, from 6.5-130 μg/ml, were introduced to live S. suis cells in this buffer. Three strains were considered particularly relevant: 7711, the serotype 7 strain that encodes PlySs1; S735, the serotype 2 reference strain; and 7997, a highly virulent serotype 9 strain. In terms of bacterial viability, only the highest PlySs1-concentration (130 μg/ml) led to a >90% decrease in CFUs for 7711, S735, and 7997 after 1 hr treatment (TABLE 2). The lysin was also tested against actively-dividing cells in broth culture (strain 7711) (FIG. 20).
(§2) For two ΔPlySs1 concentrations (130 and 13 μg/ml), CFU analysis was conducted on S. suis strains S735, 7997, and 7711 after 1 hr treatment (optimal buffering conditions). In each experiment, the percentage-decrease in CFUs was determined for the treated sample versus the untreated. The range of the values observed (across 3 independent experiments) is reported here for each strain. The serotype of each strain is indicated in parentheses.

S. suis 7711 (ST7) = experiment: ΔPlySs1 CFU analysis, 1 hr treatment; type: cell-based, Streptococcus suis
Experimental: as §1, §2

S. suis S735 (ST2) = experiment: ΔPlySs1 CFU analysis, 1 hr treatment; type: cell-based, Streptococcus suis
Experimental: as §1, §2

S. pyogenes A486 = experiment: ΔPlySs1 OD600 lysis, 1 hr, optimal buffering conditions; type: cell-based, Streptococcus pyogenes
S. sanguinis 10556 = experiment: as above; type: cell-based, Streptococcus sanguinis
S. gordonii 10558 = experiment: as above; type: cell-based, Streptococcus gordonii
S. mutans U159 = experiment: as above; type: cell-based, Streptococcus mutans
S. aureus RN4220 = experiment: as above; type: cell-based, Staphylococcus aureus
[1] = system: Group E streptococci K131; experiment: as above; type: cell-based
S. agalactiae = experiment: CFU studies, bactericidal effect; type: cell-based, Streptococcus agalactiae; details: 128 μg/ml PlySs2, 60 mins
Experimental: Log-phase bacteria were resuspended in buffer A to an OD600 of 0.1 (=0.5 McFarland≈10^8 CFU/ml). PlySs2 was added at 128 μg/ml to polypropylene microtiter plates (Costar) in triplicate for each test organism. Plates were sealed and incubated at 37° C. with shaking every 5 minutes for 1 hour. After 1 hour of incubation, cells were serially diluted in 10-fold increments and plated on BHI. Triplicate controls for each strain were performed with buffer B replacing PlySs2.

MRSA [2] = experiment: rat MRSA wound infection with sterile sand (foreign body); type: in vivo, rats; details: for CFU/Gram, AVG: 10 mg PlySs2 single dose, 15 rats, after 10 days, not true Avg since < values
Experimental: Animal experiments were initiated by determining the infectious dose of MRSA necessary to cause infection in the rat wound. […] However, when we added a foreign body ([…]), infection occurred at <10^8 CFUs. Specifically, incisions were made in the backs of the rats (5-6 cm in length) and a 2-3 mm incision was made in the underlying tissue. To this was added 100 mg sterile sand and 50 μl of MRSA. The wounds were stapled closed and the animals followed for 10 days and the wounds opened and examined for gross changes and tissue samples taken for bacteriological examination.
Samples (weighed and homogenized tissue) taken from the opened wound yielded about 10^7 CFU MRSA/gram of tissue. This model was very reproducible yielding the same results in at least 10 animals.
We used the model as described above to treat with PlySs2 lysin to determine the effects of the treatment. In this case, half of the animals receiving the MRSA and sand were treated with 10 mg PlySs2 in 50 ul of phosphate buffer (PB), control animals received PB instead 10 minutes after MRSA dosing. The animals were followed for 10 days. At this time the animals were analyzed for gross changes and microbiology. […] This is in sharp contrast to animals treated with a single dose of PlySS2.

Listeria strains = experiment: PlySs2 lytic activity against species and strains (FIG. 25); type: cell-based; details: 32 μg/ml, 60 minutes
Experimental: (§3) FIG. 25 provides PlySs2 activity against different species and strains. Log-phase cultures were exposed to 32 μg/ml PlySs2 for 60 minutes in phosphate buffer. The final OD600 of the treated samples were divided by the final OD600 of the untreated samples to generate the normalized values above. Multiple Staphylococci (including, but not limited to: MRSA, MSSA, and VISA), Streptococci, Listeria, Enterococci, and Bacilli were tested for susceptibility to PlySs2 activity. Escherichia and Pseudomonas were tested as Gram-negative controls.

Pseudomonas = experiment: as above; type: cell-based; details: Gram-negative control
Experimental: as §3

MRSA [3] = experiment: MRSA wound infection model in rats; details: dorsal wound; 500 μL + 100 μL PlySs2 at 10 mg/mL; after 10 days
MRSA strain MW2 = experiment: resistance assay, exposure to incrementally increasing concentrations; type: cell-based, Staphylococcus aureus; details: concentration doubled daily from 1/32 to 4× MIC over 8 days

B1: ΔPlySs1: truncated PlySs1 lysin, SEQ ID NO:2, N-terminal 254 amino acids: only N-terminal enzymatic and central binding domains (protein, listed as Streptococcus suis)
chain: MTINLETSIRWMSDRVGKVSYSMDYRNGPNSYDCSSAVYYALMAGGAISAGWAVNTEYMHDWLIRNGYVLVAENKPFNAQRHDVCILGKRGYSSGAGGHVVIFVDNVNVIHCNYARNGISIDNYNQVHRGMYYYLYRPANQPSISNKSLDQLVKETLAGVHGNGDTRKASLGSQYEAVMAVINGKASASEKSDEELAREVLAGKHGAGEDRKRSLGPRYEPVQAKVNELLKAKEKPSETAKNEPQTVQFKEDGDL
- percentage-decrease in CFUs, range of 3 experiments (S. suis 7997 (ST9); 13 μg/ml): 16.8%-30.3%
- percentage-decrease in CFUs, range of 3 experiments (S. suis 7997 (ST9); 130 μg/ml): 89.9%-93.9%
- percentage-decrease in CFUs, range of 3 experiments (S. suis 7997 (ST9); 130 μg/ml, listed as PlySs1): > 90%
- percentage-decrease in CFUs, range of 3 experiments (S. suis 7711 (ST7); 13 μg/ml): 0%-35.6%
- percentage-decrease in CFUs, range of 3 experiments (S. suis 7711 (ST7); 130 μg/ml): 95.3%-99.2%
- percentage-decrease in CFUs, range of 3 experiments (S. suis 7711 (ST7); 130 μg/ml, listed as PlySs1): > 90%
- percentage-decrease in CFUs, range of 3 experiments (S. suis S735 (ST2); 13 μg/ml): 80.4%-92.6%
- percentage-decrease in CFUs, range of 3 experiments (S. suis S735 (ST2); 130 μg/ml): 95.4%-99.5%
- percentage-decrease in CFUs, range of 3 experiments (S. suis S735 (ST2); 130 μg/ml, listed as PlySs1): > 90%
- lysis value after 1 hr (treated/untreated OD600 ratio) (S. pyogenes A486; 6.5 μg/ml): 0.12
- lysis value after 1 hr (treated/untreated OD600 ratio) (S. pyogenes A486; 13 μg/ml): 0.13
- lysis value after 1 hr (treated/untreated OD600 ratio) (S. pyogenes A486; 30 μg/ml): 0.13
- lysis value after 1 hr (treated/untreated OD600 ratio) (S. pyogenes A486; 65 μg/ml): 0.11
- lysis value after 1 hr (treated/untreated OD600 ratio) (S. pyogenes A486; 130 μg/ml): 0.10
- lysis value after 1 hr (treated/untreated OD600 ratio) (S. sanguinis 10556; 6.5 μg/ml): 0.48
- lysis value after 1 hr (treated/untreated OD600 ratio) (S. sanguinis 10556; 13 μg/ml): 0.44
- lysis value after 1 hr (treated/untreated OD600 ratio) (S. sanguinis 10556; 30 μg/ml): 0.28
- lysis value after 1 hr (treated/untreated OD600 ratio) (S. sanguinis 10556; 65 μg/ml): 0.21
- lysis value after 1 hr (treated/untreated OD600 ratio) (S. sanguinis 10556; 130 μg/ml): 0.11
- lysis value after 1 hr (treated/untreated OD600 ratio) (S. gordonii 10558; 6.5 μg/ml): 0.76
- lysis value after 1 hr (treated/untreated OD600 ratio) (S. gordonii 10558; 13 μg/ml): 0.32
- lysis value after 1 hr (treated/untreated OD600 ratio) (S. gordonii 10558; 30 μg/ml): 0.19
- lysis value after 1 hr (treated/untreated OD600 ratio) (S. gordonii 10558; 65 μg/ml): 0.09
- lysis value after 1 hr (treated/untreated OD600 ratio) (S. gordonii 10558; 130 μg/ml): 0.06
- lysis value after 1 hr (treated/untreated OD600 ratio) (S. mutans U159; 6.5 μg/ml): 0.95
- lysis value after 1 hr (treated/untreated OD600 ratio) (S. mutans U159; 13 μg/ml): 0.99
- lysis value after 1 hr (treated/untreated OD600 ratio) (S. mutans U159; 30 μg/ml): 0.94
- lysis value after 1 hr (treated/untreated OD600 ratio) (S. mutans U159; 65 μg/ml): 0.76
- lysis value after 1 hr (treated/untreated OD600 ratio) (S. mutans U159; 130 μg/ml): 0.85
- lysis value after 1 hr (treated/untreated OD600 ratio) (S. aureus RN4220; 6.5 μg/ml): 0.89
- lysis value after 1 hr (treated/untreated OD600 ratio) (S. aureus RN4220; 13 μg/ml): 0.78
- lysis value after 1 hr (treated/untreated OD600 ratio) (S. aureus RN4220; 30 μg/ml): 0.55
- lysis value after 1 hr (treated/untreated OD600 ratio) (S. aureus RN4220; 65 μg/ml): 0.31
- lysis value after 1 hr (treated/untreated OD600 ratio) (S. aureus RN4220; 130 μg/ml): 0.10
- lysis value after 1 hr (treated/untreated OD600 ratio) ([1]; 6.5 μg/ml): 0.69
- lysis value after 1 hr (treated/untreated OD600 ratio) ([1]; 13 μg/ml): 0.50
- lysis value after 1 hr (treated/untreated OD600 ratio) ([1]; 30 μg/ml): 0.33
- lysis value after 1 hr (treated/untreated OD600 ratio) ([1]; 65 μg/ml): 0.22
- lysis value after 1 hr (treated/untreated OD600 ratio) ([1]; 130 μg/ml): 0.15

B2: PlySs2: Streptococcus suis prophage lysin, SEQ ID NO:3; N-terminal CHAP domain and C-terminal SH3-type 5 domain (protein, listed as Streptococcus suis)
chain: MTTVNEALNNVRAQVGSGVSVGNGECYALASWYERMISPDATVGLGAGVGWVSGAIGDTISAKNIGSSYNWQANGWTVSTSGPFKAGQIVTLGATPGNPYGHVVIVEAVDGDRLTILEQNYGGKRYPVRNYYSAASYRQQVVHYITPPGTVAQSAPNLAGSRSYRETGTMTVTVDALNVRRAPNTSGEIVAVYKRGESFDYDTVIIDVNGYVWVSYIGGSGKRNYVATGATKDGKRFGNAWGTFK
- reduction in CFU counts (S. agalactiae): dramatically reduced
- CFU/Gram, individual rats P1-P15 (MRSA [2]; 10 mg PlySs2 single dose 10 minutes after MRSA, wound tissue after 10 days): <5.00E+01 CFU/Gram (10×) and 9.10E+01 CFU/Gram and 5.00E+01 CFU/Gram and 8.40E+02 CFU/Gram and 3.20E+02 CFU/Gram (2×)
- CFU/Gram, AVG (MRSA [2]): 1.41×10^2 CFU/Gram
- CFU/Gram, AVG (MRSA [2]; listed as PLYSS2): 1.41E+02 CFU/Gram
- CFU Reduction vs Control (MRSA [2]; AVG buffer / AVG PlySs2): CFU Reduction vs Control 3.02E+04
- reduction of MRSA (MRSA [2]; PlySs2 vs buffer, wound tissue after 10 days): > 4 logs
- gross changes of wounds (MRSA [2]; single dose of PlySS2, 10 days): did not exhibit pus or necrosis and exhibited better healing
- strains lysed of strains tested (Listeria strains): 2 of 6
- lytic activity (Pseudomonas): did not display activity
- drop of CFU's of MRSA compared with control rats (MRSA [3]): 3-4 logs
- development of resistance (MRSA strain MW2): Neither S. aureus strain developed resistance; also recorded: None of MRSA strain MW2, MSSA strain 8325, nor S. pyogenes strain 5005 developed resistance
